Laboratory results taken from patent US20240018502A1.
Substitutions are numbered along the chain they refer to. Names and notes keep the numbering of the source. Each block holds one binder with its values, some of them ahead of it.

Biological target: plasma purified human complement protein C3 (human) (UniProt P01024)
Assay: cell-based or functional assay

Chain of plasma purified human complement protein C3 (human) (P01024 23-667, chain 1 of 2): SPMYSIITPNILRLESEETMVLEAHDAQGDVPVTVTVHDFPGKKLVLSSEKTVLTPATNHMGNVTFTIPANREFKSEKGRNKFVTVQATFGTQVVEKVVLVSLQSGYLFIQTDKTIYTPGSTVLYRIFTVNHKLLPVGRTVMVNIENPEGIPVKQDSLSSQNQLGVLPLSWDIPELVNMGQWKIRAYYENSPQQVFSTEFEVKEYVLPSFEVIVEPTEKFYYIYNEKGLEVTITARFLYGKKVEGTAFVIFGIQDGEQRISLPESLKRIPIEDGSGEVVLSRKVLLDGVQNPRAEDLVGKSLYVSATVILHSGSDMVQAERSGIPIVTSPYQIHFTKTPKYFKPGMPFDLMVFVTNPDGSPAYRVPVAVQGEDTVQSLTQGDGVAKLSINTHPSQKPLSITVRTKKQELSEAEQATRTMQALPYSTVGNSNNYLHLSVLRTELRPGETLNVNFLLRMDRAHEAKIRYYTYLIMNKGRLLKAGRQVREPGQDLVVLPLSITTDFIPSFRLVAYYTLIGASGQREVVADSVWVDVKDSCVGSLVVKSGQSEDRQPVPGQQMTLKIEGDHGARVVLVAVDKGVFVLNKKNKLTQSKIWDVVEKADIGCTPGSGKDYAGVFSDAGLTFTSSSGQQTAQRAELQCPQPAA
Chain of plasma purified human complement protein C3 (human) (P01024 672-1663, chain 2 of 2): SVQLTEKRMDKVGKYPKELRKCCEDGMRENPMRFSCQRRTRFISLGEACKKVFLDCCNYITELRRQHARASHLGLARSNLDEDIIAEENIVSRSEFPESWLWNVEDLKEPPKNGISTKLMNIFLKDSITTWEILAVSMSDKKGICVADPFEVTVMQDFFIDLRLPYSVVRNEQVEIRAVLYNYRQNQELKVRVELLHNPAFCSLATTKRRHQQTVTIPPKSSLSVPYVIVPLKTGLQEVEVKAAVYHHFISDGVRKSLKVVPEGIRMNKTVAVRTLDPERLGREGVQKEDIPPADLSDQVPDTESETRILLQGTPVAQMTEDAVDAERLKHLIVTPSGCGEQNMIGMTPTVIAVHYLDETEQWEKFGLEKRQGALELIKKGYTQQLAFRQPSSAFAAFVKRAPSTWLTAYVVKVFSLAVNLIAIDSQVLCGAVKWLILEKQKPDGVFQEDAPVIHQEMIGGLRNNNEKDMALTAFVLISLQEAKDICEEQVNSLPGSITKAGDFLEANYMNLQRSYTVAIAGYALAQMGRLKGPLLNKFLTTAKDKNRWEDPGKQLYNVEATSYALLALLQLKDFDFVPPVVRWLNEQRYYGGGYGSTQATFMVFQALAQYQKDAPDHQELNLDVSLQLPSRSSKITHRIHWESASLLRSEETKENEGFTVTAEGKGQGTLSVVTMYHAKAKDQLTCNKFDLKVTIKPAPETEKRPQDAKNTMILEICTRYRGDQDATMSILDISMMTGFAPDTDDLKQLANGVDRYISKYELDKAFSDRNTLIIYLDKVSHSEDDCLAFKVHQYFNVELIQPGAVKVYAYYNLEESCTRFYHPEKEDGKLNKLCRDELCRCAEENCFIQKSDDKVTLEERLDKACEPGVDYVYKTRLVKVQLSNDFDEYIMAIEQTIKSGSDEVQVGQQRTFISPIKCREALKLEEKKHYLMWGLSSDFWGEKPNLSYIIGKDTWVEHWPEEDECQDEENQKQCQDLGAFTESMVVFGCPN

B1: MTSP-1 I41R/F97T/ins97aE/T98G/F99L/C122S/G151N/Q175I/Q192E (enzyme)
chain: VVGGTDADEGEWPWQVSLHALGQGHRCGASLISPNWLVSAAHCYIDDRGFRYSDPTQWTAFLGLHDQSQRSAPGVQERRLKRIISHPFFNDTEGLDYDIALLELEKPAEYSSMVRPISLPDASHVFPAGKAIWVTGWGHTQYGGTNALILQKGEIRVINQTTCENLLPQIITPRMMCVGFLSGGVDSCEGDSGGPLSSVEADGRIFQAGVVSWGDGCAQRNKPGVYTRLPLFRDWIKENTGV
EC50 of hC3 cleavage: 1030 nM

B2: MTSP-1 Y59F/ins97aE/F97T/T98G/F99L/C122S/L153Q/Q175L/Q192E (enzyme)
chain: B1 chain with R26I, Y44F, N146G, L148Q, I170L
EC50 of hC3 cleavage: 237 nM

B5: MTSP-1 Y59F/D96V/ins97aE/F97T/T98G/F99L/C122S/Q175L/Q192E (enzyme)
chain: B1 chain with R26I, Y44F, D91V, N146G, I170L
EC50 of hC3 cleavage: 293 nM

B7: MTSP-1 E24K/ins97aE/F97T/T98G/F99L/C122S/A152S/Q175L/Q192D (enzyme)
chain: B1 chain with E9K, R26I, N146G, A147S, I170L, E189D
EC50 of hC3 cleavage: 291 nM

B8: MTSP-1 ins97aD/F97T/T98S/F99L/C122S/Q192E/D217Y/K224R (enzyme)
chain: B1 chain with R26I, E93D, G94S, N146G, I170Q, D215Y, K222R
EC50 of hC3 cleavage: 5000 nM

B10: MTSP-1 ins97aD/F97G/T98N/F99L/C122S/Q192E/D217Y/K224R (enzyme)
chain: B1 chain with R26I, T92G, E93D, G94N, N146G, I170Q, D215Y, K222R
EC50 of hC3 cleavage: 9870 nM

B13: MTSP-1 I41R/Y59F/ins97aE/F97T/T98G/F99L/C122S/L153Q/Q175L/Q192E (enzyme)
chain: B1 chain with Y44F, N146G, L148Q, I170L
EC50 of hC3 cleavage: 253 nM

B14: MTSP-1 I41R/Y59F/ins97aE/F97T/T98G/F99L/C122S/Q175L/Q192D (enzyme)
chain: B1 chain with Y44F, N146G, I170L, E189D
EC50 of hC3 cleavage: 288 nM

B20: MTSP-1 I41D/ins97aE/F97T/T98G/F99L/C122S/Q175L/Q192E (enzyme)
chain: B1 chain with R26D, N146G, I170L
EC50 of hC3 cleavage: 157 nM

B21: MTSP-1 ins97aD/F97Q/T98G/F99L/C122S/Q175L/Q192E/D217F/K224S (enzyme)
chain: B1 chain with R26I, T92Q, E93D, N146G, I170L, D215F, K222S
EC50 of hC3 cleavage: 5560 nM

B25: MTSP-1 ins97aE/F97T/T98G/F99L/C122S/Q175L/Q192E/Q209L (enzyme)
chain: B1 chain with R26I, N146G, I170L, Q207L
EC50 of hC3 cleavage: 383 nM

B27: MTSP-1 F97M/ins97aD/T98D/F99L/C122S/Q192T (enzyme)
chain: B1 chain with R26I, T92M, E93D, G94D, N146G, I170Q, E189T
EC50 of hC3 cleavage: 151 nM

B28: MTSP-1 I41R/F97T/ins97aE/T98G/F99L/C122S/G151D/Q175I/Q192E (enzyme)
chain: B1 chain with N146D
EC50 of hC3 cleavage: 2070 nM

B31: MTSP-1 I41R/ins97aV/F97D/T98P/F99L/C122S/G151N/Q175L/Q192E (enzyme)
chain: B1 chain with T92D, E93V, G94P, I170L
EC50 of hC3 cleavage: 187 nM

B33: MTSP-1 ins97aV/F97Q/T98P/F99L/C122S/Q175F/Q192D (enzyme)
chain: B1 chain with R26I, T92Q, E93V, G94P, N146G, I170F, E189D
EC50 of hC3 cleavage: 248 nM

B35: MTSP-1 I41R/ins97aE/F97T/T98G/F99L/C122S/G151N/Q175S/Q192D (enzyme)
chain: B1 chain with I170S, E189D
EC50 of hC3 cleavage: 2080 nM

B37: MTSP-1 I41R/ins97aE/F97T/T98G/F99L/C122S/G151D/Q175I/Q192D (enzyme)
chain: B1 chain with N146D, E189D
EC50 of hC3 cleavage: 1750 nM

B38: MTSP-1 Y59F/ins97aE/F97T/T98G/F99L/C122S/Q175L/Q192E (enzyme)
chain: B1 chain with R26I, Y44F, N146G, I170L
EC50 of hC3 cleavage: 341 nM

B39: MTSP-1 ins97aN/F97H/T98D/F99L/C122S/Q192E/D217Q/K224S (enzyme)
chain: B1 chain with R26I, T92H, E93N, G94D, N146G, I170Q, D215Q, K222S
EC50 of hC3 cleavage: 2750 nM

B41: MTSP-1 H40R/I41H/F97D/F99L/C122S/G151N/Q192H/D217K/K224A (enzyme)
chain: VVGGTDADEGEWPWQVSLHALGQGRHCGASLISPNWLVSAAHCYIDDRGFRYSDPTQWTAFLGLHDQSQRSAPGVQERRLKRIISHPFFNDDTLDYDIALLELEKPAEYSSMVRPISLPDASHVFPAGKAIWVTGWGHTQYGGTNALILQKGEIRVINQTTCENLLPQQITPRMMCVGFLSGGVDSCHGDSGGPLSSVEADGRIFQAGVVSWGKGCAQRNAPGVYTRLPLFRDWIKENTGV
EC50 of hC3 cleavage: 137 nM

B44: MTSP-1 Q38E/H40R/I41H/D60bE/F97D/F99L/C122S/Q192G (enzyme)
chain: B41 chain with Q23E, D47E, N145G, H188G, K214D, A221K
EC50 of hC3 cleavage: 28.1 nM

The next lines start with the values.

EC50 of hC3 cleavage: 158 nM
B3: MTSP-1 ins97aV/F97D/T98P/F99L/C122S/Q175L/Q192E (enzyme)
chain: B1 chain with R26I, T92D, E93V, G94P, N146G, I170L

EC50 of hC3 cleavage: 2790 nM
B4: MTSP-1 ins97aG/F97N/T98D/F99L/C122S/Q192E/D217H/K224A (enzyme)
chain: B1 chain with R26I, T92N, E93G, G94D, N146G, I170Q, D215H, K222A

EC50 of hC3 cleavage: 184 nM
B6: MTSP-1 F97N/ins97aT/T98Y/F99N/C122S (enzyme)
chain: B1 chain with R26I, T92N, E93T, G94Y, L95N, N146G, I170Q, E189Q

EC50 of hC3 cleavage: 249 nM
B9: MTSP-1 ins97aE/F97Y/T98S/F99L/C122S/Q192T/D217Q/K224R (enzyme)
chain: B1 chain with R26I, T92Y, G94S, N146G, I170Q, E189T, D215Q, K222R

EC50 of hC3 cleavage: 289 nM
B11: MTSP-1 Y59F/F97T/ins97aE/T98G/F99L/C122S/Q175L/Q192D (enzyme)
chain: B1 chain with R26I, Y44F, N146G, I170L, E189D

EC50 of hC3 cleavage: 53.5 nM
B12: MTSP-1 ins97aV/F97D/T98P/F99L/C122S/Q192G (enzyme)
chain: B1 chain with R26I, T92D, E93V, G94P, N146G, I170Q, E189G

EC50 of hC3 cleavage: 429 nM
B15: MTSP-1 ins97aE/F97T/T98G/F99L/C122S/I136M/L155M/N170D/Q175L/Q192E (enzyme)
chain: B1 chain with R26I, I132M, N146G, L150M, N165D, I170L

EC50 of hC3 cleavage: 87 nM
B16: MTSP-1 F97D/ins97aV/T98P/F99L/C122S/G151N/Q192G (enzyme)
chain: B1 chain with R26I, T92D, E93V, G94P, I170Q, E189G

EC50 of hC3 cleavage: 288 nM
B17: MTSP-1 I41R/ins97aE/F97T/T98G/F99L/A112V/C122S/Q175L/Q192E (enzyme)
chain: B1 chain with A108V, N146G, I170L

EC50 of hC3 cleavage: 2450 nM
B18: MTSP-1 F97Q/ins97aT/T98M/C122S/Q192E/D217R/K224L (enzyme)
chain: B1 chain with R26I, T92Q, E93T, G94M, L95F, N146G, I170Q, D215R, K222L

EC50 of hC3 cleavage: 102 nM
B19: MTSP-1 Y59F/G60dS/R84H/ins97aE/F97T/T98G/F99L/C122S/Q175L/Q192E/V212I (enzyme)
chain: B1 chain with R26I, Y44F, G49S, R79H, N146G, I170L, V210I

EC50 of hC3 cleavage: 274 nM
B22: MTSP-1 I41R/ins97aE/F97T/T98G/F99L/C122S/G151S/Q175L/Q192E (enzyme)
chain: B1 chain with N146S, I170L

EC50 of hC3 cleavage: 8370 nM
B23: MTSP-1 I41R/F97T/ins97aE/T98G/F99L/C122S/G151N/Q175I/Q192D (enzyme)
chain: B1 chain with E189D

EC50 of hC3 cleavage: 143 nM
B24: MTSP-1 I41R/Y59F/G60dS/R84H/ins97aE/F97T/T98G/F99L/C122S/Q175L/Q192E/V212I (enzyme)
chain: B1 chain with Y44F, G49S, R79H, N146G, I170L, V210I

EC50 of hC3 cleavage: 148 nM
B26: MTSP-1 I41D/ins97aE/F97T/T98G/F99L/C122S/G151N/Q175L/Q192E (enzyme)
chain: B1 chain with R26D, I170L

EC50 of hC3 cleavage: 280 nM
B29: MTSP-1 S90T/D96A/ins97aE/F97T/T98G/F99L/C122S/Q175L/Q192D (enzyme)
chain: B1 chain with R26I, S85T, D91A, N146G, I170L, E189D

EC50 of hC3 cleavage: 332 nM
B30: MTSP-1 ins97aE/F97T/T98G/F99L/C122S/L153Q/Q175L/Q192D (enzyme)
chain: B1 chain with R26I, N146G, L148Q, I170L, E189D

EC50 of hC3 cleavage: 200 nM
B32: MTSP-1 ins97aA/F97G/T98N/F99L/C122S/Q175M/Q192T/K224A (enzyme)
chain: B1 chain with R26I, T92G, E93A, G94N, N146G, I170M, E189T, K222A

EC50 of hC3 cleavage: 258 nM
B34: MTSP-1 D96V/ins97aE/F97T/T98G/F99L/C122S/Q175L/Q192D (enzyme)
chain: B1 chain with R26I, D91V, N146G, I170L, E189D

EC50 of hC3 cleavage: 232 nM
B36: MTSP-1 I41R/ins97aV/F97D/T98P/F99L/C122S/G151N/Q192G (enzyme)
chain: B1 chain with T92D, E93V, G94P, I170Q, E189G

EC50 of hC3 cleavage: 93.4 nM
B40: MTSP-1 H40R/I41H/Y60gF/F97D/F99L/C122S/Q175K/Q192G/D217R/K224Q (enzyme)
chain: B41 chain with Y52F, N145G, Q169K, H188G, K214R, A221Q

EC50 of hC3 cleavage: 346 nM
B42: MTSP-1 H40R/I41H/F97D/F99L/C122S/G151N/Q192N/D217L/K224R (enzyme)
chain: B41 chain with H188N, K214L, A221R

EC50 of hC3 cleavage: 97.3 nM
B43: MTSP-1 I41R/F97W/F99L/C122S/G151N/Q192G (enzyme)
chain: B41 chain with R25H, H26R, D92W, H188G, K214D, A221K

EC50 of hC3 cleavage: 21.9 nM
B45: MTSP-1 H40R/I41H/F97D/F99L/Q175R/Q192G/D217E/K224R (enzyme)
chain: B41 chain with S117C, N145G, Q169R, H188G, K214E, A221R

EC50 of hC3 cleavage: 30.9 nM
B46: MTSP-1 Q38E/H40R/I41H/F97D/F99L/C122S/Q192G (enzyme)
chain: B41 chain with Q23E, N145G, H188G, K214D, A221K
